Results published in patent US9708383 (Novo Nordisk, dated 2017).
*1 amine or outer side, *2 acyl side, *3 side chain or, on linkers, in order; H or OH if unused. Where no end group is shown, it is not given here. Side-chain parts run from the residue outwards. [ ]: non-standard residue; d: D form. The star is where a group is joined. 8‑(4-carboxyphenoxy)octanoyl = O=C(O)c1ccc(OCCCCCCCC(=O)*)cc1; Decanoyl(10-(4-HOOC-PhO)) = O=C(O)c1ccc(OCCCCCCCCCC(=O)*)cc1; γGlu = O=C(O)[C@H](CCC(=O)[*:2])N[*:1]; Hexanoyl(6-Ph) = O=C(CCCCCc1ccccc1)*; C12 diacid = O=C(O)CCCCCCCCCCC(=O)*; 13‑carboxytridecanoyl = C14 diacid; Butanoyl(4-Ph) = O=C(CCCc1ccccc1)*; AEEA = NCCOCCOCC(=O)O; Aib = CC(C)(N)C(=O)O; Ahx = NCCCCCC(=O)O

B1: GLP-1 derivative of Example 97: [Lys,Glu22,Arg34]-GLP-1-(7-37)-peptide (peptide)
peptide: HAEGTFTSDVSK([AEEA-AEEA-γGlu-γGlu-13‑carboxytridecanoyl])YLEEQAAK([AEEA-AEEA-γGlu-γGlu-13‑carboxytridecanoyl])EFIAWLVRGRG
notes: Name prints Lys without its number (Lys18)

Assays:
human GLP-1 receptor [1] = target: T1, human GLP-1 receptor (human, UniProt P43220 24-463); assay: SPA, 2.0% vs 0.005% HSA
T1 construct: whole, on cells; Used as purified membranes of the transfected hamster cells, not whole cells; also called hGLP-1
Method: (§1) A shift in the binding affinity, $IC50$, is an indication that the derivative in question binds to albumin, and thereby a prediction of a potential protracted pharmacokinetic profile of the derivative in question in animal models.
(§2) 25 ul (microliter) of test compounds are added to Optiplate. HSA ("high albumin" experiment containing 2% HSA), or buffer ("low albumin" experiment containing 0.005% HSA), was added (50 ul). 5-10 µg protein/sample was added (50 ul) corresponding to 0.1-0.2 mg protein/ml (to be preferably optimised for each membrane preparation). SPA-particles (Wheatgerm agglutinin SPA beads, Perkin Elmer, #RPNQ0001) were added in an amount of 0.5 mg/well (50 ul). […] The plates were sealed with PlateSealer and incubated for 120 minutes at 30° C. while shaking. The plates were centrifuged (1500 rpm, 10 min) and counted in Topcounter.

human GLP-1 receptor [2] = target: T1, human GLP-1 receptor; assay: SPA, displacement of 125I-GLP-1(7-36)NH2, 0.005% HSA
Method: as §1, §2

Binder | ratio IC50 high HSA/IC50 low HSA (human GLP-1 receptor [1]) | IC50 (human GLP-1 receptor [2])
HAEGTFTSDVSK([AEEA-AEEA-γGlu-Decanoyl(10-(4-HOOC-PhO))])YLEEQAVREFIAK([AEEA-AEEA-γGlu-Decanoyl(10-(4-HOOC-PhO))])LVRGRG [GLP-1 derivative of Example 75: [Lys18,Glu22,Val25,Arg26,Lys31,Arg34]-GLP-1-(7-37)-peptide] | > 1 | < 1 µM
HAEGTFTSDVSK([AEEA-AEEA-γGlu-13‑carboxytridecanoyl])YLEGQAVREFIAK([AEEA-AEEA-γGlu-13‑carboxytridecanoyl])LVRGRG [GLP-1 derivative of Example 77: [Lys18,Val25,Arg26,Lys31,Arg34]-GLP-1-(7-37)-peptide] | > 1 | < 1 µM
HAEGTFTSDVSK([AEEA-AEEA-γGlu-8‑(4-carboxyphenoxy)octanoyl])YLEEQAAK([AEEA-AEEA-γGlu-8‑(4-carboxyphenoxy)octanoyl])EFIAWLVQGRG [GLP-1 derivative of Example 89: [Lys18,Glu22,Gln34]-GLP-1-(7-37)-peptide] | > 1 | < 1 µM
HAEGTFTSDVSK([AEEA-AEEA-γGlu-γGlu-γGlu-13‑carboxytridecanoyl])YLEGQAAREFIAK([AEEA-AEEA-γGlu-γGlu-γGlu-13‑carboxytridecanoyl])LVRGRG [GLP-1 derivative of Example 91: [Lys18,Arg26,Lys31,Arg34]-GLP-1-(7-37)-peptide] | > 1 | < 1 µM
HAEGTFTSDVSK([AEEA-AEEA-γGlu-Decanoyl(10-(4-HOOC-PhO))])YLEEQAAK([AEEA-AEEA-γGlu-Decanoyl(10-(4-HOOC-PhO))])EFIAWLVRGRG [GLP-1 derivative of Example 94: [Lys18,Glu22,Arg34]-GLP-1-(7-37)-peptide] | > 1 | < 1 µM
HAEGTFTSDVSK([AEEA-AEEA-γGlu-Decanoyl(10-(4-HOOC-PhO))])YLEGQAAK([AEEA-AEEA-γGlu-Decanoyl(10-(4-HOOC-PhO))])EFIAWLVRGRG [GLP-1 derivative of Example 95: [Lys18,Arg34]-GLP-1-(7-37)-peptide] | > 1 | < 1 µM
HAEGTFTSDVSK([AEEA-AEEA-γGlu-13‑carboxytridecanoyl])YLEEQAAK([AEEA-AEEA-γGlu-13‑carboxytridecanoyl])EFIAWLVRGRG [GLP-1 derivative of Example 96: [Lys18,Glu22,Arg34]-GLP-1-(7-37)-peptide] | > 1 | < 1 µM
B1 | > 1 | < 1 µM
HAEGTFTSDVSK([AEEA-AEEA-AEEA-AEEA-γGlu-13‑carboxytridecanoyl])YLEEQAVREFIAK([AEEA-AEEA-AEEA-AEEA-γGlu-13‑carboxytridecanoyl])LVRGRG [GLP-1 derivative of Example 98: [Lys18,Glu22,Val25,Arg26,Lys31,Arg34]-GLP-1-(7-37)-peptide] | > 1 | < 1 µM
HAEGTFTSDVSK([AEEA-AEEA-AEEA-AEEA-AEEA-AEEA-γGlu-13‑carboxytridecanoyl])YLEEQAVREFIAK([AEEA-AEEA-AEEA-AEEA-AEEA-AEEA-γGlu-13‑carboxytridecanoyl])LVRGRG [GLP-1 derivative of Example 99: [Lys18,Glu22,Val25,Arg26,Lys31,Arg34]-GLP-1-(7-37)-peptide] | > 1 | < 1 µM
HAEGTFTSDVSK([AEEA-AEEA-γGlu-γGlu-γGlu-13‑carboxytridecanoyl])YLEEQAVREFIAK([AEEA-AEEA-γGlu-γGlu-γGlu-13‑carboxytridecanoyl])LVRGRG [GLP-1 derivative of Example 101: [Lys18,Glu22,Val25,Arg26,Lys31,Arg34]-GLP-1-(7-37)-peptide] | > 1 | < 1 µM
HAEGTFTSDVSK([γGlu-AEEA-AEEA-13‑carboxytridecanoyl])YLEGQAVREFIAK([γGlu-AEEA-AEEA-13‑carboxytridecanoyl])LVRGRG [GLP-1 derivative of Example 104: [Lys18,Val25,Arg26,Lys31,Arg34]-GLP-1-(7-37)-peptide] | > 1 | < 1 µM
HAEGTFTSDVSK([γGlu-AEEA-AEEA-Decanoyl(10-(4-HOOC-PhO))])YLEGQAAK([γGlu-AEEA-AEEA-Decanoyl(10-(4-HOOC-PhO))])EFIAWLVRGRG [GLP-1 derivative of Example 106: [Lys18,Arg34]-GLP-1-(7-37)-peptide] | > 1 | < 1 µM
HAEGTFTSDVSK([AEEA-AEEA-γGlu-Decanoyl(10-(4-HOOC-PhO))])YLEGQAVREFIAK([AEEA-AEEA-γGlu-Decanoyl(10-(4-HOOC-PhO))])LVRGRG [GLP-1 derivative of Example 107: [Lys18,Val25,Arg26,Lys31,Arg34]-GLP-1-(7-37)-peptide] | > 1 | < 1 µM
HAEGTFTSDVSK([AEEA-AEEA-γGlu-Ahx-γGlu-Butanoyl(4-Ph)])YLEGQAAK([AEEA-AEEA-γGlu-Ahx-γGlu-Butanoyl(4-Ph)])EFIAWLVRGRG [GLP-1 derivative of Example 110: [Lys18,Arg34]-GLP-1-(7-37)-peptide] | > 1 | < 1 µM
HAEGTFTSDVSK([γGlu-AEEA-AEEA-γGlu-13‑carboxytridecanoyl])YLEEQAVREFIAK([γGlu-AEEA-AEEA-γGlu-13‑carboxytridecanoyl])LVRGRG [GLP-1 derivative of Example 111: [Lys18,Glu22,Val25,Arg26,Lys31,Arg34]-GLP-1-(7-37)-peptide] | > 1 | < 1 µM
HAEGTFTSDVSK([AEEA-AEEA-γGlu-13‑carboxytridecanoyl])YLEEQAVRK([AEEA-AEEA-γGlu-13‑carboxytridecanoyl])FIAHLVQGRG [GLP-1 derivative of Example 118: [Lys18,Glu22,Val25,Arg26,Lys27,His31,Gln34]-GLP-1-(7-37)-peptide] | > 1 | < 1 µM
HAEGTFTSDVSK([AEEA-AEEA-γGlu-13‑carboxytridecanoyl])YLEEQAAHK([AEEA-AEEA-γGlu-13‑carboxytridecanoyl])FIAHLVQGRG [GLP-1 derivative of Example 119: [Lys18,Glu22,His26,Lys27,His31,Gln34]-GLP-1-(7-37)-peptide] | > 1 | < 1 µM
HAEGTFTSDVSK([AEEA-AEEA-γGlu-2‑(4-(4-fluorophenoxy)phenyl)acetyl])YLEK([AEEA-AEEA-γGlu-2‑(4-(4-fluorophenoxy)phenyl)acetyl])QAAREFIAWLVQGRG [GLP-1 derivative of Example 120: [Lys18,Lys22,Arg26,Gln34]-GLP-1-(7-37)-peptide] | > 1 | < 1 µM
HAEGTFTSDVSK([AEEA-AEEA-γGlu-C12 diacid])YLEEQAVREFIAK([AEEA-AEEA-γGlu-C12 diacid])LVRGRG [GLP-1 derivative of Example 124: [Lys18,Glu22,Val25,Arg26,Lys31,Arg34]-GLP-1-(7-37)-peptide] | > 1 | < 1 µM
HAEGTFTSDVSK([AEEA-AEEA-γGlu-2‑(2-(trifluoromethyl)phenyl)acetyl])YLEK([AEEA-AEEA-γGlu-2‑(2-(trifluoromethyl)phenyl)acetyl])QAAREFIAWLVQGRG [GLP-1 derivative of Example 125: [Lys18,Lys22,Arg26,Gln34]-GLP-1-(7-37)-peptide] | > 1 | < 1 µM
HAEGTFTSDVSK([AEEA-AEEA-γGlu-γGlu-13‑carboxytridecanoyl])YLEK([AEEA-AEEA-γGlu-γGlu-13‑carboxytridecanoyl])QAAREFIAWLVQGRG [GLP-1 derivative of Example 126: [Lys18,Lys22,Arg26,Gln34]-GLP-1-(7-37)-peptide] | > 1 | < 1 µM
HAEGTFTSDVSK([AEEA-AEEA-γGlu-Ahx-γGlu-Hexanoyl(6-Ph)])YLEGQAAK([AEEA-AEEA-γGlu-Ahx-γGlu-Hexanoyl(6-Ph)])EFIAWLVRGRG [GLP-1 derivative of Example 129: [Lys18,Arg34]-GLP-1-(7-37)-peptide] | > 1 | < 1 µM
HAEGTFTSDVSK([AEEA-AEEA-γGlu-13‑carboxytridecanoyl])YLEEQAVREFIAK([AEEA-AEEA-γGlu-13‑carboxytridecanoyl])LVRGRG-NH2 [GLP-1 derivative of Example 133: [Lys18,Glu22,Val25,Arg26,Lys31,Arg34]-GLP-1-(7-37)-peptide amide] | > 1 | < 1 µM
H[Aib]EGTFTSDVSK([AEEA-AEEA-γGlu-Decanoyl(10-(4-HOOC-PhO))])YLEEQAAK([AEEA-AEEA-γGlu-Decanoyl(10-(4-HOOC-PhO))])EFIAWLVQGRG [GLP-1 derivative of Example 2: [Aib8,Lys18,Glu22,Gln34]-GLP-1-(7-37)-peptide] | > 1 | < 1 µM
H[Aib]EGTFTSDVSK([AEEA-AEEA-γGlu-Decanoyl(10-(4-HOOC-PhO))])YLEEQAAREFIAWLVRGRK([AEEA-AEEA-γGlu-Decanoyl(10-(4-HOOC-PhO))]) [GLP-1 derivative of Example 1: [Aib8,Lys18,Glu22,Arg26,Arg34,Lys37]-GLP-1-(7-37)-peptide] | > 1 | < 1 µM
H[Aib]EGTFTSDVSK([AEEA-AEEA-γGlu-Decanoyl(10-(4-HOOC-PhO))])YLEEQAAREFIAK([AEEA-AEEA-γGlu-Decanoyl(10-(4-HOOC-PhO))])LVRGRG [GLP-1 derivative of Example 3: [Aib8,Lys18,Glu22,Arg26,Lys31,Arg34]-GLP-1-(7-37)-peptide] | > 1 | < 1 µM
H[Aib]EGTFTSDVSK([AEEA-AEEA-γGlu-Decanoyl(10-(4-HOOC-PhO))])YLEEQAVRK([AEEA-AEEA-γGlu-Decanoyl(10-(4-HOOC-PhO))])FIAWLVQGRG [GLP-1 derivative of Example 41: [Aib8,Lys18,Glu22,Val25,Arg26,Lys27,Gln34]-GLP-1-(7-37)-peptide] | > 1 | < 1 µM
